Reference: the supplement of paper PMC9732359
± gives the uncertainty stated by the source.

Experiment: protein stability index of a GFP-peptide fusion (yeast GPS) (PSI 1-4); higher = more stable; sorted into four equal gates, so the index is relative within each strain
In short: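 For each peptide, the protein stability index sums the read frequency in every gate after multiplying it by the gate number. Read frequencies came from plasmids that were PCR-amplified from each gate and Illumina-sequenced, with reads assigned to strains by barcodes. The gates were four equal bins of GFP/Cherry fluorescence ratio applied to mid-log yeast in leucine-free medium carrying a pooled library of tiled 17-residue yeast protein peptides fused downstream of GFP on a Cherry-expressing plasmid.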

Sequence | protein stability index (doa10∆) | protein stability index (pdr5∆) | protein stability index (san1∆) | protein stability index (ubr1∆)
WSTTGDNGELDLSGFNI [MED2] | 3.18 ± 0.09 | 3.19 ± 0.12 | 3.34 ± 0.076 | 2.93 ± 0.097
WTEKKGKNVINRERFIS [SMD2] | 2.54 ± 0.16 | 1.54 ± 0.066 | 1.11 ± 0.19 | 3.05 ± 0.087
WTMRIEGRLLDNVQAND [SNF12] | 2.48 ± 0.09 | 2.96 ± 0.096 | 2.7 ± 0.065 | 2.93 ± 0.047
WYEASTWIQQFKSTMLQ [ARP7] | 2.54 ± 0.078 | 2.68 ± 0.069 | 2.6 ± 0.093 | 2.14 ± 0.056
YARFKNDFFPGEVVYLR [ITC1] | 3.29 ± 0.083 | 1.99 ± 0.069 | 2.58 ± 0.1 | 3.22 ± 0.091
YASFNDTFVHVTDLSGK [RPS14B] | 2.31 ± 0.098 | 2.88 ± 0.08 | 2.52 ± 0.084 | 2.73 ± 0.094
YATKDGVAHLLNRFNFQ [QCR2] | 2.45 ± 0.088 | 2.67 ± 0.053 | 1.87 ± 0.29 | 2.6 ± 0.057
YAVKAVENGTTSIGIKC [PRE10] | 2.04 ± 0.11 | 2.02 ± 0.076 | 1.36 ± 0.21 | 2.77 ± 0.19
YDNEKTAELIKELKEKE [PUP2] | 3.27 ± 0.066 | 3.34 ± 0.087 | 3.44 ± 0.094 | 3.31 ± 0.064
YDPIKRIDAFNALEHKY [SSN3] | 2.83 ± 0.058 | 2.85 ± 0.041 | 2.73 ± 0.05 | 2.77 ± 0.043
YDPSIGIFGMDFYVVMN [RPL11A] | 2.26 ± 0.05 | 2.24 ± 0.052 | 2.31 ± 0.055 | 2.55 ± 0.037
YDSRSGTHNMYKEIRDV [RPL20A] | 3.11 ± 0.069 | 3.06 ± 0.064 | 3.16 ± 0.043 | 3.18 ± 0.056
YEKELMGDELTRSHFNA [RPN6] | 2.96 ± 0.13 | 3.39 ± 0.15 | 3.34 ± 0.057 | 3.48 ± 0.1
YENSISKDLRSVWKPIA [IRR1] | 2.58 ± 0.092 | 2.63 ± 0.11 | 2.57 ± 0.064 | 2.54 ± 0.05
YEYGAVSVLLISKDCSA [BRR2] | 2.12 ± 0.047 | 1.97 ± 0.043 | 1.91 ± 0.081 | 1.81 ± 0.041
YFFQLQIRSADEPMTTF [RPC11] | 2.77 ± 0.063 | 2.91 ± 0.068 | 3.06 ± 0.058 | 3.26 ± 0.071
YGDGNGKGDNDNGLGPL [SWI3] | 3.46 ± 0.15 | 3.13 ± 0.3 | 3.31 ± 0.073 | 3 ± 0.1
YGLGLIYAGFGRDTTDY [RPN2] | 3.37 ± 0.12 | 3.03 ± 0.1 | 2.95 ± 0.084 | 3.28 ± 0.088
YGMSITETFEKPQRTNT [RPB2] | 3.03 ± 0.14 | 3.35 ± 0.17 | 3.04 ± 0.12 | 3.12 ± 0.11
YGRKSFRNNKNDNYSSD [REC8] | 3.28 ± 0.096 | 3.22 ± 0.068 | 3.32 ± 0.05 | 3.14 ± 0.059
YGTATADDADIEMKDVS [MED1] | 3 ± 0.13 | 3.17 ± 0.081 | 3.01 ± 0.061 | 3.15 ± 0.071
YIEDFLLVIGGNQRKIL [YJR042W/NUP85] | 1.59 ± 0.051 | 1.86 ± 0.05 | 1.62 ± 0.078 | 1.71 ± 0.042
YIEEKHPTIYESLPQYV [POP4] | 2.33 ± 0.044 | 2.39 ± 0.048 | 1.91 ± 0.052 | 2.06 ± 0.045

Sequence | protein stability index (doa10∆) | protein stability index (pdr5∆) | protein stability index (san1∆) | protein stability index (ubr1∆)
YILEAEAAAKEKDELDN [QCR7] | 3.1 ± 0.24 | 3.11 ± 0.11 | 3.1 ± 0.14 | 3.18 ± 0.079
YIQRRLVKALEDIMVHY [RPO21] | 1.77 ± 0.049 | 2.11 ± 0.051 | 1.4 ± 0.075 | 2.05 ± 0.055
YIRKLISSGLLYLQDSN [SRB8] | 1.63 ± 0.068 | 1.21 ± 0.093 | 1.18 ± 0.11 | 1.11 ± 0.061
YITAKNNVVINFKDMSH [PRP8] | 2.26 ± 0.052 | 2.02 ± 0.047 | 2.42 ± 0.063 | 2.14 ± 0.043
YKAKIKELENNLERLRS [YIL149C/MLP2] | 3.22 ± 0.095 | 1.65 ± 0.051 | 2.64 ± 0.078 | 3.11 ± 0.054
YKATATGPKQQEITTNL [SCL1] | 3.17 ± 0.064 | 3 ± 0.11 | 2.93 ± 0.057 | 3.29 ± 0.078
YKIKGRNNSKSVLLKKL [SRP72] |  | 1.56 ± 0.11 | 2.42 ± 0.26 | 1.06 ± 0.11
YKLGKVKKVQLGKKGVP [RPS4A] | 2.85 ± 0.14 | 2.98 ± 0.16 | 3.19 ± 0.049 | 2.94 ± 0.11
YKLNVRSNDPQSSLSKV [NUT2] | 3.21 ± 0.12 | 3.42 ± 0.12 | 3.33 ± 0.071 | 3.41 ± 0.095
YKLVNKNKENNTFTWNH [RPN4] | 2.65 ± 0.23 | 3.49 ± 0.27 | 3.09 ± 0.082 | 3.12 ± 0.21
YKTSKAAQDVWNRADNH [FAS1] | 2.96 ± 0.21 | 2.98 ± 0.17 | 1.71 ± 0.29 | 
YLEENKSDSQYRFYEYI [MED1] | 3.04 ± 0.063 | 3.06 ± 0.062 | 3.12 ± 0.069 | 3.13 ± 0.086
YLEESFTNLGIIVQYLT [RGR1] | 2.17 ± 0.2 | 2.49 ± 0.29 | 2.16 ± 0.19 | 2.8 ± 0.09
YLESLFAKQVDVQLERV [IRR1] | 2.49 ± 0.095 | 2.19 ± 0.074 | 2.36 ± 0.12 | 2.5 ± 0.051
YLKKREAGEVKDDGAFV [RPL10] | 3.16 ± 0.11 | 2.8 ± 0.2 | 3.37 ± 0.044 | 3.27 ± 0.1
YLLSIWVKKFKWAGIKT [CYT1] | 2.38 ± 0.16 | 1.57 ± 0.099 | 2.17 ± 0.098 | 2.29 ± 0.17
YLNSRIIPTTLEEQQQL [YML103C/NUP188] | 1.97 ± 0.039 | 2.04 ± 0.042 | 1.82 ± 0.071 | 2.13 ± 0.052
YLRVSFKNTRETAQAIN [RPL17A] | 1.51 ± 0.03 | 1.34 ± 0.042 | 1.5 ± 0.1 | 1.31 ± 0.034
YMEPFDLDLNEQVRKMY [NSL1] | 2.88 ± 0.1 | 2.36 ± 0.079 | 3.1 ± 0.068 | 2.46 ± 0.052
YNDSATSGEAAALGMGL [RPN2] | 2.32 ± 0.096 | 2.45 ± 0.11 | 2.99 ± 0.078 | 2.43 ± 0.084
YNIDANVIDTQRKNGVT [ECM29] | 2.75 ± 0.25 | 3.14 ± 0.092 | 3.26 ± 0.12 | 
YNSRPRSVRIPWYNNPV [PRP8] | 2.34 ± 0.083 | 2.22 ± 0.062 | 1.73 ± 0.088 | 2.49 ± 0.049
YPLPKFPTTSHESLVTT [MED8] | 1.81 ± 0.056 | 1.92 ± 0.06 | 2.12 ± 0.08 | 1.72 ± 0.063

Sequence | protein stability index (doa10∆) | protein stability index (pdr5∆) | protein stability index (san1∆) | protein stability index (ubr1∆)
YQDIEGGFEDVEEYTWS [RPB2] | 3.44 ± 0.14 | 3.29 ± 0.11 | 3.49 ± 0.066 | 3.44 ± 0.099
YQELGSLQSSSQTQLEN [MED2] | 2.96 ± 0.11 | 3.3 ± 0.082 | 3.08 ± 0.08 | 3.17 ± 0.072
YQNRSTRSQFCLNTQRG [RRI1] | 2.8 ± 0.054 | 3.09 ± 0.063 | 3.1 ± 0.046 | 2.97 ± 0.034
YQRSKRVNNPNVSLIKI [RPL33A] | 3.1 ± 0.067 | 3.15 ± 0.065 | 2.93 ± 0.059 | 3.21 ± 0.045
YRATSLDPSLRAPIYHS [YML031W/NDC1] | 2.4 ± 0.068 | 2.68 ± 0.055 | 2.44 ± 0.058 | 2.44 ± 0.037
YRSCETQDESEIKDAET [SMC4] | 3.77 ± 0.25 |  | 3.31 ± 0.16 | 
YSEEPREKVRKLSQYVQ [FAS2] |  |  |  | 3.16 ± 0.26
YSFGGLLMRLEGNYRNL [RPB8] | 1.8 ± 0.12 | 2.55 ± 0.12 | 3.06 ± 0.17 | 2.56 ± 0.088
YSIFLENENILIKAKNF [SMC1] | 1.21 ± 0.092 | 1.22 ± 0.11 |  | 1.14 ± 0.1
YSKIPNILSNKPGQNNR [RRP6] | 2.16 ± 0.087 | 2.37 ± 0.074 | 1.99 ± 0.16 | 1.77 ± 0.047
YSLASVTLKGAKALESL [POP1] | 2.78 ± 0.049 | 2.83 ± 0.052 | 2.83 ± 0.045 | 2.77 ± 0.052
YSLIRETNGYDPFSIYG [SNF5] | 1.23 ± 0.056 | 1.31 ± 0.088 | 1.15 ± 0.18 | 1.06 ± 0.084
YSRISKLKQLLDESSEQ [YIL149C/MLP2] | 2.25 ± 0.077 | 2.67 ± 0.088 | 1.73 ± 0.14 | 2.4 ± 0.053
YSRITLIIDDPSKGQSL [RPP1] | 2.09 ± 0.056 | 2.44 ± 0.063 | 2.42 ± 0.048 | 2.78 ± 0.053
YSRSVDKEWVFAALSDS [SSN2] | 1.44 ± 0.088 | 1.25 ± 0.06 | 1.41 ± 0.12 | 1.3 ± 0.043
YSSILGNSFNKSSNDTI [YCG1] | 2.5 ± 0.048 | 2.77 ± 0.042 | 2.62 ± 0.037 | 2.81 ± 0.049
YVAIVVDPLKSLEDKIL [RRI1] | 1.12 ± 0.069 | 1.38 ± 0.07 |  | 1.68 ± 0.081
YVDEQSKNELKKAFTSY [RPS16A] | 3.06 ± 0.059 | 3.21 ± 0.044 | 3.07 ± 0.051 | 3.13 ± 0.052
YVLRNVLRIPEEYLDAN [MTW1] | 2.67 ± 0.12 | 2.33 ± 0.15 | 3 ± 0.061 | 2.82 ± 0.088
YVNALADVLYKTAFKPH [QCR2] | 3.04 ± 0.054 | 3.06 ± 0.048 | 2.72 ± 0.038 | 2.81 ± 0.05
YVRKHDPLNSNIFSEAV [PRP28] | 2.9 ± 0.11 | 2.76 ± 0.089 | 2.9 ± 0.055 | 3.1 ± 0.12
